The data set concerns the target T1, BMC10 (uncultured bacterium (metagenome)).
T1 chain: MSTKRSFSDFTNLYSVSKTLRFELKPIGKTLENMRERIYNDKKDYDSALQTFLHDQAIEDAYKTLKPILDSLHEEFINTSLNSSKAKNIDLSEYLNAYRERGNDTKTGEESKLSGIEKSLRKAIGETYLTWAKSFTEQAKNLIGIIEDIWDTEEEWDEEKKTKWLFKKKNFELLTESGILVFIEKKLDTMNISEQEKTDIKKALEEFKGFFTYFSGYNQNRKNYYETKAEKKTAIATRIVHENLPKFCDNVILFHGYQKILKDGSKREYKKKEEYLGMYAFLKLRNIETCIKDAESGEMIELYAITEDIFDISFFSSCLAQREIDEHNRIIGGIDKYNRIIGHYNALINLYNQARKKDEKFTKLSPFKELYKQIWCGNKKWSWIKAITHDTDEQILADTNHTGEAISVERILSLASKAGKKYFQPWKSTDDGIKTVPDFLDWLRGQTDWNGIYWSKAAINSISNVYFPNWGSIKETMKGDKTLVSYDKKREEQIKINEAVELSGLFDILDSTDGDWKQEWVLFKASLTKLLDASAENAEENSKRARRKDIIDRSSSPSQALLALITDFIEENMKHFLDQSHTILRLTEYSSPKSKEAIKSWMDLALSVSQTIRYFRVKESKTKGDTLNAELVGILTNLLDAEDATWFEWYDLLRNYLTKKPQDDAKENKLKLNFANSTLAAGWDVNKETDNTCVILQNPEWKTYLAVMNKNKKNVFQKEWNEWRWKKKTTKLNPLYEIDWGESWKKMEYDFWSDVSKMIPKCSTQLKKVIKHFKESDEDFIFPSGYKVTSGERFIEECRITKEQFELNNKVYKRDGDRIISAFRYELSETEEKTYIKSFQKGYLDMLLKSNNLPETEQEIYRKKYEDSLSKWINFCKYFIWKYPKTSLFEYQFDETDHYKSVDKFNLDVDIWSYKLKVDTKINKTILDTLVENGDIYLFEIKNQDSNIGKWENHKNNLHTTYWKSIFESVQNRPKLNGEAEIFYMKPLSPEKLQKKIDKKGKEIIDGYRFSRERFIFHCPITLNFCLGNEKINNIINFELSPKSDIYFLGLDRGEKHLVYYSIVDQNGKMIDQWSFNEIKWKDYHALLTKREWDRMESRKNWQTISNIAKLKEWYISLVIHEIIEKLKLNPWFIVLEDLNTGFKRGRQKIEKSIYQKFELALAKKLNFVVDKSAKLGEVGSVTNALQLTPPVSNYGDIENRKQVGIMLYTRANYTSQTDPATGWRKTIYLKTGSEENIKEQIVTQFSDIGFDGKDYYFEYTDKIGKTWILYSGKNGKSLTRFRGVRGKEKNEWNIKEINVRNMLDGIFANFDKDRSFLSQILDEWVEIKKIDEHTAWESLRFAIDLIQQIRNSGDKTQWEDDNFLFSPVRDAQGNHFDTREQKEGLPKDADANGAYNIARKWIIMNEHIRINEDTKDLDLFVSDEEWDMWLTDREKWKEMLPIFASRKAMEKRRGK
In words: cell_activity; PAM not stated; E. coli depletion, 30 C. The procedure, abridged: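 E. coli carrying arabinose-induced (0.2%) BMC nuclease, grown at 30° C., made electrocompetent and electroporated with 50-100 ng plasmid carrying gRNA against malQ. Transformants plated on selective M9-glucose agar with kanamycin/ampicillin (± nourseothricin), and growth scored after 48 h at 30° C.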

From patent US20250277199, “NOVEL CRISPR-CAS NUCLEASES FROM METAGENOMES” (Brain Biotech AG, published 2025) come the findings set out here.

B1: malQ gRNA (BMC stem-loop + 24 nt spacer) ; malQ protospacer (ssRNA ; dsDNA)
RNA: GAUUUCUACUAUUGUAGAUGUGGCGGUACGUUGAUGCAUCGCG
DNA 1: GTGGCGGTACGTTGATGCATCGCG
DNA 2: CGCGATGCATCAACGTACCGCCAC
B1 yielded an activity above 99.9 % colony reduction.
